According to PMC7164391 (Science (New York, N.Y.), 2020):

Molecular target: receptor-binding domain (RBD) of the SARS-CoV spike (S) protein (SARS-CoV, isolate of GenBank ABF65836.1 …, UniProt Q19QX0)
Conditions: both partners purified

B1: CR3022 Fab (Fab, V domains shown)
VH: QMQLVQSGTEVKKPGESLKISCKGSGYGFITYWIGWVRQMPGKGLEWMGIIYPGDSETRYSPSFQGQVTISADKSINTAYLQWSSLKASDTAIYYCAGGSGISTPMDVWGQGTTVTVSS
VL: not shown
  Kd: 1 ± 0.1 nM
